T1: IL13Rα2 (human, UniProt Q14627 27-380)
T1 construct: whole, on cells; Endogenous target on U87 cells; also called IL-13Ra2; IL13Ra2
T1 sequence (looked up): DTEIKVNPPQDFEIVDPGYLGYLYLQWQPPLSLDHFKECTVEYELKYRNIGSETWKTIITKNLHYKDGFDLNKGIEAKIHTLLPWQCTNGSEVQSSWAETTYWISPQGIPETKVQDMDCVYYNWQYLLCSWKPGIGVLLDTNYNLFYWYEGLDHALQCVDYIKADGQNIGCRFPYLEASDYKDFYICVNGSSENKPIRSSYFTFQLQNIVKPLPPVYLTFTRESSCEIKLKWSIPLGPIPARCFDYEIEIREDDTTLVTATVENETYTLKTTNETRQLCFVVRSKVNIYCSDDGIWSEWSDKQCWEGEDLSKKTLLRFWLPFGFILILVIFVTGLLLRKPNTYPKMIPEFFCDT

B1: CAR-containing polypeptide #6 (IL13Rα2-specific chimeric antigen receptor with human IL13.E11K.R64D.S67D.R107K binding domain, 4-1BB, IL-7Rα part, mutant CD3ζ) (receptor)
chain: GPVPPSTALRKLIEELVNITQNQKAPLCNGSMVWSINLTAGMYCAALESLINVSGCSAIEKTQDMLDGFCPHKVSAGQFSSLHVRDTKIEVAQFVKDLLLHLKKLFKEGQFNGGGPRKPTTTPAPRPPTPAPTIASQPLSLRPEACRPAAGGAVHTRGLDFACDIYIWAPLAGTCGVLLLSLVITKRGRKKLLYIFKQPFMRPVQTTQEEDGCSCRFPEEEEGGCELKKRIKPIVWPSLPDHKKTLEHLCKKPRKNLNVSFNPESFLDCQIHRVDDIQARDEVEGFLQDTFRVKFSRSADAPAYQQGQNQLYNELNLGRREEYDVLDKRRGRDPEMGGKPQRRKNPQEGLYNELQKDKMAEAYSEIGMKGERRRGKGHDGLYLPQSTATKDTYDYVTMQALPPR
notes: Expressed on human T cells; also called CAR-T #6; PG13/#6
B2: CAR-containing polypeptide #12 (IL13Rα2-specific chimeric antigen receptor with human IL13.E11K.R64D.S67D.R107K binding domain, 4-1BB, IL-2Rβ part, mutant CD3ζ) (receptor)
chain: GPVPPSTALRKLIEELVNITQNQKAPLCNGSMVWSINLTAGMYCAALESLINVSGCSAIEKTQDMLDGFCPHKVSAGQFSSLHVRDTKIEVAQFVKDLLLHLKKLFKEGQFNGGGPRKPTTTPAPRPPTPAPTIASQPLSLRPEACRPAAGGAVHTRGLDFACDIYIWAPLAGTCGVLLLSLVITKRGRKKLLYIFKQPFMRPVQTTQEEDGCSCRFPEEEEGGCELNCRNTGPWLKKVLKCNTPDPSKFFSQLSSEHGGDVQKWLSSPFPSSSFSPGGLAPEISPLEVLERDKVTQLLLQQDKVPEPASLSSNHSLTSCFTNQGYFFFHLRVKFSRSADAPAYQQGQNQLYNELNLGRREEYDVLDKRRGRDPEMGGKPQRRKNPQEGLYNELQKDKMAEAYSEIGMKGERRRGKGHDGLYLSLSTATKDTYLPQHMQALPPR
notes: Expressed on human T cells; also called CAR-T #12; PG13/#12

Target: T1, IL13Rα2
Assay: inferred by the filing from LDH cytotoxicity of CAR-T cells on U87 (IL13Rα2+) versus 293FT (IL13Rα2-) cells
Description: In order to measure the cytotoxicity of IL13Rα2-specific CAR-T cells prepared in Example 2 (#1, #2, #5, #6, #7, #8, #11, or #12), cytotoxicity assay was performed using an LDH (Promega) kit. Specifically, CAR-T cells (effector cells) were used 10 days after activation of the cells with an anti-CD3 Ab, and the CAR-T cells (having a CAR expression rate of 20% to 40%) were added to a 6-well plate at a ratio 1:2, in which effector:target was 1×10⁶ cells:2×10⁶ cells and reacted at 37° C. for 24 hours.
An analysis was performed to examine whether IL13Rα2-specific CAR-T cells prepared in the present invention can effectively kill the target cancer cells (U87 expressing IL13Rα2).

Row | Binder | binding result
1 | B1 | binds
2 | B2 | binds

From US20210252069A1 (published 2021)
